This experiment concerns the target ubiquitin (15N-Ub) (UniProt P0CG48 1-76). The experiment is described as follows: NMR titration.

This is an account of results in PMC3755756 (Developmental cell, 2013).

By Kd is commonly meant a measure of binding affinity in units of concentration. Low values mean a tighter complex, high ones a looser complex.

B1: V domain of human Alix (domain or fragment)
chain: FEKMVPVSVQQSLAAYNQRKADLVNRSIAQMREATTLANGVLASLNLPAAIEDVSGDTVPQSILTKSRSVIEQGGIQTVDQLIKELPELLQRNREILDESLRLLDEEEATDNDLRAKFKERWQRTPSNELYKPLRAEGTNFRTVLDKAVQADGQVKECYQSHRDTIVLLCKPEPELNAAIPSANPAKTMQGSEVVNVLKSLLSNLDEVKKEREGLENDLKSVNFDMTSKFLTALAQDGVINEEALSVTELDRVYGGLTTKVQESLKKQEGLLKNIQVSHQEFSKMKQSNNEANLREEVLKNLATAYDNFVELVANLKEGTKFYNELTEILVRFQNKCSDIVFARKTER
Regarding B1, the Kd was roughly 50 µM.

B2: V domain of HD-PTP (domain or fragment, human, UniProt Q9H3S7 401-714, looked up)
chain: MQLDPETVDNLDAYSHIPPQLMEKCAALSVRPDTVRNLVQSMQVLSGVFTDVEASLKDIRDLLEEDELLEQKFQEAVGQAGAISITSKAELAEVRREWAKYMEVHEKASFTNSELHRAMNLHVGNLRLLSGPLDQVRAALPTPALSPEDKAVLQNLKRILAKVQEMRDQRVSLEQQLRELIQKDDITASLVTTDHSEMKKLFEEQLKKYDQLKVYLEQNLAAQDRVLCALTEANVQYAAVRRVLSDLDQKWNSTLQTLVASYEAYEDLMKKSQEGRDFYADLESKVAALLERTQSTCQAREAARQQLLDRELKK
In turn, B2 came in with a Kd of roughly 50 µM.
